For data set [1], the system named is MS2 coat protein. Kind of data set: apparent KD of MS2 coat protein; designed switch direction (-1 OFF switch, 1 ON switch): -1; higher = weaker reporter binding. As to conditions: Eterna round: R98. As for the experimental part: (§1)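 RNA-MaP: designed FMN/MS2 RNA switches (84 nt design region) are transcribed on-chip within common flanks and titrated with SNAP-549-labelled MS2 coat protein (about 1-3000 nM) in 100 mM Tris pH 7.5, 80 mM KCl, 4 mM MgCl2, without or with 200 uM FMN. Median apparent KD per design; activation ratio = KD,OFF / KD,ON.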

Data set [2] has as its system MS2 coat protein. Put plainly: apparent KD of MS2 coat protein; higher = weaker reporter binding. As to conditions: Eterna round: R101. Here is the method: as §1

“AAAAGAACCCGAGGAUAUGCGAAAUCACGAAGAGCAGAAGGCGGCUACAUGUGGAUCCGAGGACAUGAGGAUCACCCAUGUACG [Iszaaatce]”: the “apparent KD of MS2 coat protein” value came out at 165 nM in the data set on MS2 coat protein [1] (input ligand: FMN 200 uM) and 321 nM in the data set on MS2 coat protein [1] (input ligand: none).

For the sequence “AAUAAUUCUCAAGGAUAUGACUCCGAAACGGAGUCAGAAGGUGAGGAUCACCCACCUAGCUCAGCGUCGAAAGACGCUGAGCAA [#SharedSequence ExNG1 - 35] (puzzle (switch architecture): Exclusion NG 1)”, the “apparent KD of MS2 coat protein” value came to 314 nM in the data set with MS2 coat protein [2] (input ligand: FMN 200 uM) and 18.4 nM in the data set with MS2 coat protein [2] (input ligand: none).

Turning to “AAUAUAAAGAGCUGGCUUCUAAUAACAUGAGGAUCACCCAUGUAGGAUAUCAGCACGAUAAGUGCUGAGAAGGACAUCCAGCUC [Denovo 53]”, the “apparent KD of MS2 coat protein” value amounted to 14.3 nM in the data set with MS2 coat protein [1] (input ligand: FMN 200 uM) and 14.4 nM in the data set on MS2 coat protein [1] (input ligand: none).

As to “ACACGUCGUGAGAAGGAGGAUCACCCUUUCGAAAGAAAUAGCCACCGUGAAAACGGUGGCAGAUUUUAGGAUAUCACGACGUGA [#SharedSequence - IExNG2: 9] (puzzle (switch architecture): Inverted Exclusion NG 2)”, the “apparent KD of MS2 coat protein” value in the data set on MS2 coat protein [2] (input ligand: FMN 200 uM) amounted to 113 nM; with MS2 coat protein [2] (input ligand: none) it was 88.3 nM.

Turning to “AGAGCUGCUCAGAAGGAGGAUCACCCUUUCGAAAGAAAUACGGAGGCUGAAAAGCCUCCGAAAUCCUAGGAUAUGAGCAGCUCA [#SharedSequence - IExNG2: 3] (puzzle (switch architecture): Inverted Exclusion NG 2)”, the “apparent KD of MS2 coat protein” value in the data set on MS2 coat protein [2] (input ligand: FMN 200 uM) turned out to be 7.43 nM; with MS2 coat protein [2] (input ligand: none), 791 nM.

On to “AGGAGAAAUGUAGGAUAUAUAUAUAUAUAUGGGCAAAGCGCAUAUAUAUAUAUAGAAGGACAUGAGGAUCACCCAUGUUUCCCU [#Lowering the energy 11] (puzzle (switch architecture): Small Loop Exclusion NG 1)”, for which the “apparent KD of MS2 coat protein” value was 10.9 nM in the data set with MS2 coat protein [2] (input ligand: FMN 200 uM) and 10.8 nM with MS2 coat protein [2] (input ligand: none).

As to “AUGCCGUGCAGAGCGCAACGGCGUACAUGAGGAUCACCCAUGUAGGAUAUACUACACAAAGUGUAGUAGAAGGACAUGCGACUG [Ex NG2 #93]”, the “apparent KD of MS2 coat protein” value in the data set with MS2 coat protein [1] (input ligand: FMN 200 uM) worked out at 185 nM; in the data set with MS2 coat protein [1] (input ligand: none), 56.7 nM.

On to “CCUGCACCUCAAGGAUAUCCAGUCGAAACGACUGGAGAAGGUGAGGAUCACCCAUCUAGCCUGACGAAAGUCAGGCAUGCAGGA [#SharedSequence - ExNG1-5] (puzzle (switch architecture): Exclusion NG 1)”, for which the “apparent KD of MS2 coat protein” value with MS2 coat protein [2] (input ligand: FMN 200 uM) is 848 nM.

For the sequence “CCUGCACUUCAAGGAUAUCCAGUCGAAACGACUGGAGAAGGUGAGGAUCACCCACCUAGCCUGACGAAAGUCAGGCAUGCAGGA [#SharedSequence - ExNG1-3] (puzzle (switch architecture): Exclusion NG 1)”, the “apparent KD of MS2 coat protein” value was 8.06 nM in the data set with MS2 coat protein [2] (input ligand: FMN 200 uM) and 8.62 nM with MS2 coat protein [2] (input ligand: none).

“CGCUAUGACAUGAGGAUCACCCAUGUAUACAUGGGAAUGACGUAGGAUAUGCAGAAGAUUAAAGUGCAGAAGGACGGCUUUGCG [JR #DistanceClose #Static #NP SSNG3 Sub063] (puzzle (switch architecture): Same State NG 3)”: the “apparent KD of MS2 coat protein” value worked out at 214 nM in the data set with MS2 coat protein [2] (input ligand: FMN 200 uM) and 433 nM with MS2 coat protein [2] (input ligand: none).

With “CUAUAGAUAUGAGGAUAUGUAUAUCCAACAUGAGGAUCACCCAUGUUGAGGAUCACCCAUGUAAAGCAGAAGGCAUAUCUAUAG [#HighScoreProbStacks] (puzzle (switch architecture): Same State NG 2)”, the “apparent KD of MS2 coat protein” value was determined as 16.6 nM in the data set with MS2 coat protein [2] (input ligand: FMN 200 uM) and 21.5 nM in the data set with MS2 coat protein [2] (input ligand: none).

For the sequence “CUGUGACGGAUCCAGAAUUACAACAUGAGGAUCACCCAUGUGCAGGAUAUCGGGUUGAUAGGCGCCGAGAAGGGUAUGAUCACG [Ex NG2 #37]”, the “apparent KD of MS2 coat protein” value with MS2 coat protein [1] (input ligand: FMN 200 uM) is 77.3 nM; in the data set on MS2 coat protein [1] (input ligand: none) it was 80 nM.

“GAACUCACGGCAUGCAUAUAAGCACAUGAGGAUCACCCAUGUCAGGAUAUCCACGGUCGUGCUUCGGAGAAGGGACAUGAGGCG [Lainxe]”: the “apparent KD of MS2 coat protein” value with MS2 coat protein [1] (input ligand: FMN 200 uM) is 48 nM; in the data set on MS2 coat protein [1] (input ligand: none), 51.7 nM.

“GCCAUCGCAUGAGGAUAUGCUCCCGUUUCGGGAGCAGAAGGCAUGUCAUAAGACAUGAGGAUCACCCAUGUAGUUAAGAUGGCA (puzzle (switch architecture): Same State NG 1)”: the “apparent KD of MS2 coat protein” value in the data set with MS2 coat protein [2] (input ligand: FMN 200 uM) is 11.7 nM; in the data set with MS2 coat protein [2] (input ligand: none), 285 nM.

With “GGACGUCACAUUAACAUGAGGAUCACCCAUGUCAAAAGACAUGAGGAUAUGGAUCCUAAUUGGAUCCAGAAGGCAUGGACGUCC [#HiddenHairpinInALoop - Fiskers NG3ss - 39] (puzzle (switch architecture): Same State NG 3)”, the “apparent KD of MS2 coat protein” value stood at 14.8 nM in the data set with MS2 coat protein [2] (input ligand: FMN 200 uM) and 236 nM in the data set with MS2 coat protein [2] (input ligand: none).

For the sequence “GGUACUCAAAGAGUACCAAUACGAACAUGAGGAUCACCCAUGUAGGAUAUGCUACUCAAAGAGUAGCAGAAGGACAUGUGUAAA [OmeiMod 10 - Jieux - Exclusion NG 3]”, the “apparent KD of MS2 coat protein” value amounted to 567 nM with MS2 coat protein [1] (input ligand: FMN 200 uM) and 92.4 nM in the data set on MS2 coat protein [1] (input ligand: none).

For the sequence “GUGGUUGUCGUAGGAUAUGUAGGAUAUUCCUACAUGAGGAUCACCCAUGUUCGCAUGGAAGAAGGACAGAAGGACGAUGACCAG [salish99_SSNG2_011 #endbits investigation] (puzzle (switch architecture): Same State NG 2)”, the “apparent KD of MS2 coat protein” value in the data set with MS2 coat protein [2] (input ligand: FMN 200 uM) amounted to 9.85 nM; in the data set with MS2 coat protein [2] (input ligand: none), 855 nM.

As to “UAAGUCGGAAGAUAAUAAUGAAUACAUGAGGAUCACCCAUGUAAGGAUAUGCAGUGGAAUACACUGCAGAAGGUACAAACCGAC [Exclusion NG 3/17-A2]”, the “apparent KD of MS2 coat protein” value in the data set on MS2 coat protein [1] (input ligand: FMN 200 uM) is 24.6 nM; in the data set with MS2 coat protein [1] (input ligand: none), 15.2 nM.

For the sequence “UCAUACAUGAGGAUCACCCAUGACAUGAGGAUCACCCAUGUGCAGGAUAUACGUGAUAUAAUAUAGUAGAAGGGCAGACUAUAA [LRO006_Exclusion NG 3]”, the “apparent KD of MS2 coat protein” value in the data set on MS2 coat protein [1] (input ligand: FMN 200 uM) was found to be 53 nM; with MS2 coat protein [1] (input ligand: none) it was 39.8 nM.

With “UCUUAAAUGAUCCUAUUUACCAACAUGAGGAUCACCCAUGUGCAGGAUAUGCUAAAGAUAAAUAAGCAGAAGGGCAAUAACCGC [JR_ExcNG3_Sub007]”, the “apparent KD of MS2 coat protein” value in the data set on MS2 coat protein [1] (input ligand: FMN 200 uM) amounted to 608 nM; with MS2 coat protein [1] (input ligand: none) it was 127 nM.

For “UGUAUUAAUGGAGGAUAUCAAUAUCAAACAUGAGGAUCACCCAUGUUGAGGAUCACCCAUGUCCAUGAGAAGGCUGGCGUACGU [My 19th design] (puzzle (switch architecture): Same State NG 2)”, the results for the “apparent KD of MS2 coat protein” value in the data set on MS2 coat protein [2] (input ligand: FMN 200 uM) and with MS2 coat protein [2] (input ligand: none) were 10.9 nM and 9.37 nM, respectively.

The values above are taken from the supplement of paper PMC9170038.
